± gives the standard error. For some assays here: Variants at the floor of the assay were thinned out.
B1: glmS ribozyme (parent)
chain: AUAAAAGCGCCAGAACUACAGAAAUGUAGUUGACGAGGAGGAGGUUUAUCGAAUUUUCGGCGGAUGCCUCCAAA

Assays:
Settings in all cases: with glucosamine-6-phosphate
glucosamine-6-phosphate [1] = variants of: B1; assay: kcat; higher = faster cleavage; RNA array
Procedure, shortened: (§1)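 Tiles of sequenced MiSeq chips were imaged over ~14 h at 37 °C. On them, barcoded ribozyme variants had been transcribed in situ by E. coli RNA polymerase and were tracked via a hybridised Cy3 probe while glucosamine-6-phosphate (40 μM to 10 mM) in HEPES/KCl/Mg(OAc)2 buffer flowed in. Per-tile medians, normalised to baseline and to non-cleaving reference variants, were fit to one- or two-exponential decays for kobs, and weighted Michaelis–Menten fits gave kcat and KM.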

glucosamine-6-phosphate [2] = variants of: B1; assay: KM; higher = weaker cofactor use; RNA array
Procedure, shortened: as §1

glucosamine-6-phosphate [3] = variants of: B1; assay: self-cleavage kobs at 160 uM GlcN6P; higher = faster cleavage; RNA array
Procedure, shortened: as §1

glucosamine-6-phosphate [4] = variants of: B1; assay: self-cleavage kobs at 640 uM GlcN6P; higher = faster cleavage; RNA array
Procedure, shortened: as §1

glucosamine-6-phosphate [5] = variants of: B1; assay: self-cleavage kobs at 2500 uM GlcN6P; higher = faster cleavage; RNA array
Procedure, shortened: as §1

glucosamine-6-phosphate [6] = variants of: B1; assay: self-cleavage kobs at 10000 uM GlcN6P; higher = faster cleavage; RNA array
Procedure, shortened: as §1

glucosamine-6-phosphate [7] = variants of: B1; assay: self-cleavage kobs at 40 uM GlcN6P; higher = faster cleavage; RNA array
Procedure, shortened: as §1

Row | Variant | kcat (glucosamine-6-phosphate [1]) [s⁻¹] | KM (glucosamine-6-phosphate [2]) [µM] | self-cleavage kobs at 160 uM GlcN6P (glucosamine-6-phosphate [3]) [s⁻¹] | self-cleavage kobs at 640 uM GlcN6P (glucosamine-6-phosphate [4]) [s⁻¹] | self-cleavage kobs at 2500 uM GlcN6P (glucosamine-6-phosphate [5]) [s⁻¹] | self-cleavage kobs at 10000 uM GlcN6P (glucosamine-6-phosphate [6]) [s⁻¹] | self-cleavage kobs at 40 uM GlcN6P (glucosamine-6-phosphate [7]) [s⁻¹]
1 | A14C U56C | 0.000932 ± 0.00029 | 4280 ± 2000 | 3.09e-05 ± 1.5e-05 | 0.00014 ± 1.8e-05 | 0.000275 ± 4.5e-05 | 0.000754 ± 0.00012 | –
2 | C10U U56G | 3.3e-05 ± 4.5e-06 | – | – | – | 2.86e-05 ± 8.5e-06 | 2.92e-05 ± 6.7e-06 | –
3 | G60A C70A | 1.05e-05 ± 2.5e-06 | – | – | – | – | – | < 1e-05
4 | G51U C68A | 2.77e-05 ± 5e-06 | – | – | – | – | – | –
5 | G37U U47A | < 1e-05 | – | – | < 1e-05 | – | – | –
6 | C10G C70A | < 1e-05 | – | – | – | – | < 1e-05 | –
7 | U31C U65G | 0.0016 ± 0.00034 | 5250 ± 1700 | – | 0.000198 ± 2.5e-05 | 0.000465 ± 7.2e-05 | 0.00108 ± 0.00013 | –
8 | U46C A52G | 0.000634 ± 0.00015 | 5990 ± 2100 | – | 7.1e-05 ± 1.4e-05 | 0.000161 ± 3.6e-05 | 0.000412 ± 7e-05 | –
9 | G32U U69A | 9.32e-05 ± 6.2e-06 | 142 ± 64 | – | 8.92e-05 ± 1.9e-05 | 9.1e-05 ± 1.4e-05 | 8.84e-05 ± 1.1e-05 | –
10 | A14C C67G | 0.000353 ± 6.7e-05 | 2730 ± 860 | 3.67e-05 ± 7.3e-06 | 6.56e-05 ± 5.7e-06 | 0.000156 ± 1.5e-05 | 0.000293 ± 2.8e-05 | –
11 | G32C A42U | < 1e-05 | – | < 1e-05 | – | < 1e-05 | – | –
12 | C61G C71A | 1.34e-05 ± 3.8e-06 | – | – | – | – | – | –
13 | U30G G41C | 0.00013 ± 5.4e-06 | 2760 ± 240 | – | – | 6.27e-05 ± 1.2e-05 | 0.000101 ± 2.7e-05 | –
14 | C10G A12G A53C G59C | 1.95e-05 ± 6.6e-06 | – | – | – | – | – | –
15 | G35A G43C | < 1e-05 | – | < 1e-05 | – | – | < 1e-05 | –
16 | U31A U69A | 0.000105 ± 2.5e-05 | – | 7.05e-05 ± 1.9e-05 | 7.66e-05 ± 2.3e-05 | 0.000163 ± 2.9e-05 | 7.86e-05 ± 2.1e-05 | –

Row | Variant | kcat (glucosamine-6-phosphate [1]) [s⁻¹] | KM (glucosamine-6-phosphate [2]) [µM] | self-cleavage kobs at 160 uM GlcN6P (glucosamine-6-phosphate [3]) [s⁻¹] | self-cleavage kobs at 640 uM GlcN6P (glucosamine-6-phosphate [4]) [s⁻¹] | self-cleavage kobs at 2500 uM GlcN6P (glucosamine-6-phosphate [5]) [s⁻¹] | self-cleavage kobs at 10000 uM GlcN6P (glucosamine-6-phosphate [6]) [s⁻¹] | self-cleavage kobs at 40 uM GlcN6P (glucosamine-6-phosphate [7]) [s⁻¹]
17 | G32U C67U | 0.00034 ± 4.6e-05 | 1790 ± 580 | – | 0.000104 ± 1.3e-05 | 0.000166 ± 2.2e-05 | 0.000303 ± 2.5e-05 | –
18 | U31C C50G | 6.62e-05 ± 2.8e-05 | – | 0.000114 ± 1.7e-05 | 0.000104 ± 2e-05 | 8.9e-05 ± 1.3e-05 | – | 2.9e-05 ± 1.3e-05
19 | C16U G63A | < 1e-05 | – | – | – | < 1e-05 | < 1e-05 | < 1e-05
20 | G29C A52U | 5.44e-05 ± 2.8e-06 | 1790 ± 390 | – | – | 3.25e-05 ± 1.4e-05 | 4.6e-05 ± 1e-05 | < 1e-05
21 | A12G G37A | 0.000113 ± 2.5e-05 | 6320 ± 2800 | – | – | 3.05e-05 ± 8.5e-06 | 6.97e-05 ± 1.1e-05 | –
22 | U30C U56C | 0.000116 ± 7.6e-06 | 4270 ± 610 | – | – | 4.38e-05 ± 4.8e-06 | 8.1e-05 ± 7e-06 | –
23 | G29A | 0.00814 ± 0.00078 | 1590 ± 200 | 0.000639 ± 6.2e-05 | 0.00201 ± 9.3e-05 | 0.00558 ± 0.00024 | 0.00697 ± 0.00023 | 0.000207 ± 4.5e-06
24 | A15G A48U | 0.000853 ± 8.9e-05 | 3930 ± 590 | 3.92e-05 ± 9.3e-06 | 0.000113 ± 1.4e-05 | 0.000349 ± 4.7e-05 | 0.000604 ± 8.6e-05 | –
25 | A39C U47C | 0.00157 ± 0.00025 | 2020 ± 510 | 0.000105 ± 1.6e-05 | 0.000327 ± 3.9e-05 | 0.000934 ± 0.00011 | 0.00131 ± 0.00011 | 4.25e-05 ± 5.6e-06
26 | C16U U31G | 0.0126 ± 0.0042 | 3460 ± 1500 | 0.00118 ± 0.00045 | 0.00226 ± 0.00062 | 0.00478 ± 0.00085 | 0.0111 ± 0.0031 | 0.000138 ± 2.7e-05
27 | A12C G37A | 0.00391 ± 0.0011 | 2210 ± 860 | 0.000248 ± 4e-05 | 0.000756 ± 0.00011 | 0.00182 ± 0.00028 | 0.00402 ± 0.00063 | 8.92e-05 ± 1.1e-05
28 | A36C U49G | 0.00221 ± 0.00064 | – | – | 0.000416 ± 0.00011 | 0.000851 ± 0.00021 | 0.00186 ± 0.00031 | 6.21e-05 ± 2.5e-05
29 | G29C A64G | 0.00121 ± 0.00056 | – | 0.000126 ± 2.9e-05 | 0.000339 ± 5.2e-05 | 0.000495 ± 0.00014 | 0.00181 ± 0.00034 | 3.98e-05 ± 1.1e-05
30 | U30G U31C | 0.00345 ± 0.00042 | 2530 ± 520 | 0.000238 ± 3.9e-05 | 0.000578 ± 0.00015 | 0.00207 ± 0.0003 | 0.00267 ± 0.00025 | 4.81e-05 ± 8.9e-06
31 | U31C G32C | 0.000493 ± 0.00011 | 4480 ± 2100 | – | – | 0.00017 ± 2.6e-05 | 0.000344 ± 3.5e-05 | –
32 | C16G C68U | 0.000168 ± 6e-06 | 778 ± 79 | 3.33e-05 ± 1.5e-05 | 7.49e-05 ± 1.2e-05 | 0.000125 ± 1.6e-05 | 0.00016 ± 2.3e-05 | –
